pKd: −log10 of the molar value.
Tests used:
Experiment in all cases: EMSA
[1] = molecular target: T1, ComA (Bacillus subtilis (W168?)) (UniProt P14204); conditions: EMSA: 10 mM HEPES pH 7.6, 2 mM MgCl2, 0.1 mM EDTA, 200 mM KCl, 5 mM DTT, 10% glycerol, 10 ng DNA in 15 ul, 20 min, room temperature
T1 sequence: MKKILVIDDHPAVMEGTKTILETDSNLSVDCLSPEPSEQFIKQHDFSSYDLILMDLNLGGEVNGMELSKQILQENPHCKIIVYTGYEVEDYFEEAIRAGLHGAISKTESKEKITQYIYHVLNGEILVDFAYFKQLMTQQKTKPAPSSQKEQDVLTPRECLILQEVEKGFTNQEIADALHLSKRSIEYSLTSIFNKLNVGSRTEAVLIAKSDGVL

[2] = molecular target: ComA;sigma factor sigmaA (Bacillus subtilis (W168?);Bacillus subtilis) (UniProt P14204+P06224); conditions: EMSA: 10 mM HEPES pH 7.6, 2 mM MgCl2, 0.1 mM EDTA, 200 mM KCl, 5 mM DTT, 10% glycerol; 10 ng DNA in 15 ul, 20 min, room temperature
ComA;sigma factor sigmaA (Bacillus subtilis (W168?);Bacillus subtilis), sequence (P06224 whole entry, one chain of several): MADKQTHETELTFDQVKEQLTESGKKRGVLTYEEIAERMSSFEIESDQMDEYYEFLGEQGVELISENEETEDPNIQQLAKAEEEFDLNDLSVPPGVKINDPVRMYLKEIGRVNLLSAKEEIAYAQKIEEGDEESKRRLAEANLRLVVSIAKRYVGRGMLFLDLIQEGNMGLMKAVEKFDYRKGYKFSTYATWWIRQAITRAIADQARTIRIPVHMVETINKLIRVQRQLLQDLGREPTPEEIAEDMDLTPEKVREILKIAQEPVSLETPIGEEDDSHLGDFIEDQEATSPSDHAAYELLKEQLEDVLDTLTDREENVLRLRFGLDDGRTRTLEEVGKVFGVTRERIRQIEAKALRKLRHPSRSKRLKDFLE

[3] = molecular target: T2, ComA;RNA polymerase alpha subunit (Bacillus subtilis (W168?);Bacillus subtilis) (UniProt P14204+P20429); conditions: EMSA: 10 mM HEPES pH 7.6, 2 mM MgCl2, 0.1 mM EDTA, 200 mM KCl, 5 mM DTT, 10% glycerol; 10 ng DNA in 15 ul, 20 min, room temperature
T2 sequence 1: T1 sequence
T2 sequence 2: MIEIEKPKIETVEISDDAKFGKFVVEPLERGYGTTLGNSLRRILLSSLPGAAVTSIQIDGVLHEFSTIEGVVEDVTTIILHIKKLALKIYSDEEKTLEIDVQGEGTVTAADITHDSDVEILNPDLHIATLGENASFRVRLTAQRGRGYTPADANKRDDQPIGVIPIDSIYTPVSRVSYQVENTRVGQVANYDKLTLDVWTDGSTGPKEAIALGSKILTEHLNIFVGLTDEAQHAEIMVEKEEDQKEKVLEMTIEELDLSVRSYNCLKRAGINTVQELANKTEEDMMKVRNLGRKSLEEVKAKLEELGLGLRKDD

Substance: AAAACCAAAAGGCCAATGTCGGCCTTTTGGTTTTTTTGCGGTCTTTGCGGTGGGATTTTGCAGAATGCCGCAATAGGATAGCGGAACATTTTCGGTTCTGAATGTCCCTCAATTTGCTATTATATTTTTGTG (double strand) [Ppel]
- binding [1]: binds

Substance: GTTACTGTCAAGTCGCAAAAGAATTGCTATGACCGAAAAAAAACCGCAAAGGAATAGATATAAGGTACCTTTTTGCAATTCATCTTTGTAAAATAAAGGTTATTCTGACATAATACAATTAATGTAAAAATTCGCACAATTTTATGTAAGGATGGGGGAATTTTC (double strand) [PrapI]
- binding [1]: binds

Substance: NCrapI (no DR)
- binding [1]: > 9.6 µM

Substance: NCyddk (no DR)
- binding [1]: > 9.6 µM

Substance: PDR ex1 (RE3 T1C)
- binding signal (fold reduced affinity) [1]: 2

Substance: PDR ex3 (RE3 G3A)
- binding [1]: > 9.6 µM

Substance: PDR ex5 (RE3 G5A)
- binding [1]: > 9.6 µM

Substance: PDR ex11 (RE4 G5A)
- binding [1]: > 9.6 µM

Substance: PDR ex12 (RE4 G6A)
- binding [1]: > 9.6 µM

Substance: PIR-PDR core module fragment
- pKd ([1]; apparent Kd, Hill coefficient 1.4): 5.62

Substance: TAGATTTCCTCCGACCTAATTTAATCCATTGTTTGTAAACATTTCATATCTAATTATATAACATAGACTCCTATTCTAACTACTTATTTTAAAGCAGTCTGGATTGTTTGGGTAATTCATAAAAAAATAAAAGAAAGAAGGAGGAATAGAGTTTTTCTTTTTTTTGTTTGCAATGTTACTGTCAAGTCGCAAAAGAATTGCTATGACCGAAAAAAAACCGCAAAGGAATAGATATAAGGTACCTTTTTGC (double strand) [Pyddk]
- binding [1]: binds

Substance: TTAATCCCCCCTTTTGAATTACCCGAGATATGTCATATTTTATCATATTTACAAGAAAAAGAAGAACGCAAAATAACCGCAATTGTCGAATTTCGGCTAACCGCAACAAAAAAGCACG (double strand) [PrapA]
- binding [2]: binds
- binding [1]: binds
- binding [3]: binds
